Laboratory results: patent publication US20050064507

Assays:
[1] = system: T1, peptide ALRRPSLRREADD (SEQ ID NO:26)
T1 sequence: XXPPGALRRPSLRREADD

[2] = system: T2, NF1 peptide AGSFKRNSIKKIV (SEQ ID NO:102)
T2 sequence: AGSFKRNSIKKIV

[3] = system: T3, peptide AYIERMNSIHRDLRA (SEQ ID NO:37)
T3 sequence: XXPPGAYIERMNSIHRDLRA

[4] = system: T4, MARCKS peptide PSPSNETPKKKKKRFSFKKS (SEQ ID NO:157)
T4 sequence: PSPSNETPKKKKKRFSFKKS

[5] = system: T5, peptide RGEGHKPSIAHRDFK (SEQ ID NO:68)
T5 sequence: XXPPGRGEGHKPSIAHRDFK

[6] = system: T6, splicing factor, arginine/serine-rich 4 peptide RSRSRSRSKSKDKRKSRKRS (SEQ ID NO:134)
T6 sequence: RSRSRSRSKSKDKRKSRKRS

[7] = system: T7, peptide HKHSPEKRGSERKEG (SEQ ID NO:52)
T7 sequence: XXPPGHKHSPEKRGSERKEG

[8] = system: T8, peptide RRRQKRRTGALVLSRGGKR (SEQ ID NO:71)
T8 sequence: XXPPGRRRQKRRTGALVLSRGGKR

[9] = system: T9, PSCD2 peptide AARKKRISVKKKQEQ (SEQ ID NO:93)
T9 sequence: AARKKRISVKKKQEQ

[10] = system: T10, slp4 peptide TYLLPDKSRQGKRKTSIKRD (SEQ ID NO:153)
T10 sequence: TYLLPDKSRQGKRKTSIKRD

[11] = system: T11, peptide LALTARESSVRSGGAG (SEQ ID NO:69)
T11 sequence: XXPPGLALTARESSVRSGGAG

[12] = system: T12, peptide RQRKRKLSFRRRTDKD (SEQ ID NO:5)
T12 sequence: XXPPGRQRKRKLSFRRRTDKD

[13] = system: T13, peptide NYLRRRLSDSNFMAN (SEQ ID NO:38)
T13 sequence: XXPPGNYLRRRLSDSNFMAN

[14] = system: T14, NCF1 peptide GAPPRRSSIRNAH (SEQ ID NO:101)
T14 sequence: GAPPRRSSIRNAH

[15] = system: T15, calcium channel, voltage-dependent, L type, alpha peptide RDIRQSPKRGFLRSASLGRR (SEQ ID NO:147)
T15 sequence: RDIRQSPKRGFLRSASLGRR

[16] = system: T16, KCNH2 peptide RQRKRKLSFRRRTDKD (SEQ ID NO:86)
T16 sequence: RQRKRKLSFRRRTDKD

[17] = system: T17, beta adducin peptide PSKSPSKKKKKFRTPSFLKK (SEQ ID NO:137)
T17 sequence: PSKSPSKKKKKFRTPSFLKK

[18] = system: T18, CHRM1 peptide RKIPKRPGSVHRTPSRQ (SEQ ID NO:83)
T18 sequence: RKIPKRPGSVHRTPSRQ

[19] = system: T19, MARCKS peptide KKRFSFKKSFKLSGFSFKKN (SEQ ID NO:119)
T19 sequence: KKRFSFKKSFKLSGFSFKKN

[20] = system: T20, peptide VQQLLRSSNRRLEQL (SEQ ID NO:49)
T20 sequence: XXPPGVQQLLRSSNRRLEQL

[21] = system: T21, peptide GLLDRKGSWKKLDDM (SEQ ID NO:35)
T21 sequence: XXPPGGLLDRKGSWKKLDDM

[22] = system: T22, peptide RGFLRSASLGRRASFHLE (SEQ ID NO:15)
T22 sequence: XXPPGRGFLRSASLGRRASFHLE

[23] = system: T23, p47phox peptide QAQRQIKRGAPPRRSSIRNA (SEQ ID NO:146)
T23 sequence: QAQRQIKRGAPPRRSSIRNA

[24] = system: T24, nuclear RNA export factor 3 peptide VRYTPYTISPYNRKGSFRKQ (SEQ ID NO:143)
T24 sequence: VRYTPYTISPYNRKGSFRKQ

[25] = system: T25, peptide LTDPKEDPIYDEPEGLAPVPG (SEQ ID NO:72)
T25 sequence: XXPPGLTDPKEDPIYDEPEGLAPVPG

[26] = system: T26, SDPR peptide EKIKRSSLKKVDSLKK (SEQ ID NO:104)
T26 sequence: EKIKRSSLKKVDSLKK

[27] = system: T27, PSCDBP peptide LSSMFGTLPRKSRKGSVRKQ (SEQ ID NO:144)
T27 sequence: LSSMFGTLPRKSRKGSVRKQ

[28] = system: T28, p164-RhoGEF peptide PRLIRRGSKKRPAR (SEQ ID NO:82)
T28 sequence: PRLIRRGSKKRPAR

[29] = system: T29, peptide QPEGLRSLKKPDRKKR (SEQ ID NO:42)
T29 sequence: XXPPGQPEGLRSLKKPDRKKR

[30] = system: T30, PARIS1 peptide EYLERRASRRRAV (SEQ ID NO:89)
T30 sequence: EYLERRASRRRAV

[31] = system: T31, PLEK peptide KFARKSTRRSIRLPE (SEQ ID NO:78)
T31 sequence: KFARKSTRRSIRLPE

[32] = system: T32, ERN1 peptide ISDFGLAKKLAVGRHSFSRR (SEQ ID NO:145)
T32 sequence: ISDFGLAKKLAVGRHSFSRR

[33] = system: T33, peptide LLGSGKVTDRKAL (SEQ ID NO:39)
T33 sequence: XXPPGLLGSGKVTDRKAL

[34] = system: T34, ERN1 peptide KLAVGRHSFSRRSGV (SEQ ID NO:94)
T34 sequence: KLAVGRHSFSRRSGV

[35] = system: T35, ADD2 peptide KKKFRTPSFLKKSKK (SEQ ID NO:95)
T35 sequence: KKKFRTPSFLKKSKK

[36] = system: T36, peptide KFARKSTRRSIRLPE (SEQ ID NO:4)
T36 sequence: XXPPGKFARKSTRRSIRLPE

[37] = system: T37, ubiquitin specific protease 8 peptide RARRDSLKKIEIW (SEQ ID NO:136)
T37 sequence: RARRDSLKKIEIW

[38] = system: T38, peptide RKIPKRPGSVHRTPSRQ (SEQ ID NO:7)
T38 sequence: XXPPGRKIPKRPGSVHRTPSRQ

[39] = system: T39, peptide KKKKRASFKRKSSKKG (SEQ ID NO:2)
T39 sequence: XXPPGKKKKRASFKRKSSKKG

**Q.** For PKC-delta, which in vitro phosphorylation (% of best substrate) [1] is on record?
**A.** 9

**Q.** And the in vitro phosphorylation (% of best substrate) [2]?
**A.** 14

**Q.** What about the in vitro phosphorylation (% of best substrate) [3] of the same substance?
**A.** 3

**Q.** What about the in vitro phosphorylation, 1 uM peptide (% of best substrate) [4] of the same substance?
**A.** 27

**Q.** And the in vitro phosphorylation, 10 uM peptide (% of best substrate) [4]?
**A.** 35

**Q.** And the in vitro phosphorylation (% of best substrate) [5]?
**A.** 1

**Q.** What about the in vitro phosphorylation, 1 uM peptide (% of best substrate) [6] of the same substance?
**A.** 44

**Q.** What about the in vitro phosphorylation, 10 uM peptide (% of best substrate) [6] of the same substance?
**A.** 16

**Q.** And the in vitro phosphorylation (% of best substrate) [7]?
**A.** 2

**Q.** What about the in vitro phosphorylation (% of best substrate) [8] of the same substance?
**A.** 1

**Q.** And the in vitro phosphorylation (% of best substrate) [9]?
**A.** 35

**Q.** And the in vitro phosphorylation, 1 uM peptide (% of best substrate) [10]?
**A.** 32

**Q.** And the in vitro phosphorylation, 10 uM peptide (% of best substrate) [10]?
**A.** 26

**Q.** And the in vitro phosphorylation (% of best substrate) [11]?
**A.** 1

**Q.** What about the in vitro phosphorylation (% of best substrate) [12] of the same substance?
**A.** 42

**Q.** And the in vitro phosphorylation (% of best substrate) [13]?
**A.** 3

**Q.** What about the in vitro phosphorylation (% of best substrate) [14] of the same substance?
**A.** 13

**Q.** What about the in vitro phosphorylation, 1 uM peptide (% of best substrate) [15] of the same substance?
**A.** 27

**Q.** What about the in vitro phosphorylation, 10 uM peptide (% of best substrate) [15] of the same substance?
**A.** 13

**Q.** And the in vitro phosphorylation (% of best substrate) [16]?
**A.** 42

**Q.** What about the in vitro phosphorylation, 1 uM peptide (% of best substrate) [17] of the same substance?
**A.** 38

**Q.** And the in vitro phosphorylation, 10 uM peptide (% of best substrate) [17]?
**A.** 16

**Q.** What about the in vitro phosphorylation (% of best substrate) [18] of the same substance?
**A.** 38

**Q.** What about the in vitro phosphorylation, 1 uM peptide (% of best substrate) [19] of the same substance?
**A.** 42

**Q.** And the in vitro phosphorylation, 10 uM peptide (% of best substrate) [19]?
**A.** 16

**Q.** And the in vitro phosphorylation (% of best substrate) [20]?
**A.** 2

**Q.** And the in vitro phosphorylation (% of best substrate) [21]?
**A.** 4

**Q.** And the in vitro phosphorylation (% of best substrate) [22]?
**A.** 18

**Q.** And the in vitro phosphorylation, 1 uM peptide (% of best substrate) [23]?
**A.** 33

**Q.** What about the in vitro phosphorylation, 10 uM peptide (% of best substrate) [23] of the same substance?
**A.** 14

**Q.** What about the in vitro phosphorylation, 1 uM peptide (% of best substrate) [24] of the same substance?
**A.** 33

**Q.** What about the in vitro phosphorylation, 10 uM peptide (% of best substrate) [24] of the same substance?
**A.** 32

**Q.** What about the in vitro phosphorylation (% of best substrate) [25] of the same substance?
**A.** 0

**Q.** And the in vitro phosphorylation (% of best substrate) [26]?
**A.** 10

**Q.** And the in vitro phosphorylation, 1 uM peptide (% of best substrate) [27]?
**A.** 35

**Q.** And the in vitro phosphorylation, 10 uM peptide (% of best substrate) [27]?
**A.** 28

**Q.** And the in vitro phosphorylation (% of best substrate) [28]?
**A.** 40

**Q.** What about the in vitro phosphorylation (% of best substrate) [29] of the same substance?
**A.** 3

**Q.** And the in vitro phosphorylation (% of best substrate) [30]?
**A.** 20

**Q.** What about the in vitro phosphorylation (% of best substrate) [31] of the same substance?
**A.** 52

**Q.** And the in vitro phosphorylation, 1 uM peptide (% of best substrate) [32]?
**A.** 34

**Q.** What about the in vitro phosphorylation, 10 uM peptide (% of best substrate) [32] of the same substance?
**A.** 23

**Q.** And the in vitro phosphorylation (% of best substrate) [33]?
**A.** 3

**Q.** And the in vitro phosphorylation (% of best substrate) [34]?
**A.** 12

**Q.** And the in vitro phosphorylation (% of best substrate) [35]?
**A.** 25

**Q.** And the in vitro phosphorylation (% of best substrate) [36]?
**A.** 52

**Q.** What about the in vitro phosphorylation, 1 uM peptide (% of best substrate) [37] of the same substance?
**A.** 41

**Q.** And the in vitro phosphorylation, 10 uM peptide (% of best substrate) [37]?
**A.** 23

**Q.** And the in vitro phosphorylation (% of best substrate) [38]?
**A.** 38

**Q.** What about the in vitro phosphorylation (% of best substrate) [39] of the same substance?
**A.** 76
